In publication PMC12965321:

Molecular target: RING1 [the product of Sex combs extra (Sce) gene] (D. melanogaster (endogenous in embryos)) (UniProt Q9VB08)
Assay: co-IP; nuclear extract of RYBP-KO, Siesta-Strep embryos (no RYBP), dialysed against 25 mM Hepes-KOH pH 7.6, 0.1 M KCl; anti-RING1 cross-linked to Dynabeads or Strep-Tactin Sepharose, 0.02% NP-40, overnight at 4°C; Western blot; compared with Siesta-Strep extract

Sequence of UniProt Q9VB08 (Q9VB08 whole entry): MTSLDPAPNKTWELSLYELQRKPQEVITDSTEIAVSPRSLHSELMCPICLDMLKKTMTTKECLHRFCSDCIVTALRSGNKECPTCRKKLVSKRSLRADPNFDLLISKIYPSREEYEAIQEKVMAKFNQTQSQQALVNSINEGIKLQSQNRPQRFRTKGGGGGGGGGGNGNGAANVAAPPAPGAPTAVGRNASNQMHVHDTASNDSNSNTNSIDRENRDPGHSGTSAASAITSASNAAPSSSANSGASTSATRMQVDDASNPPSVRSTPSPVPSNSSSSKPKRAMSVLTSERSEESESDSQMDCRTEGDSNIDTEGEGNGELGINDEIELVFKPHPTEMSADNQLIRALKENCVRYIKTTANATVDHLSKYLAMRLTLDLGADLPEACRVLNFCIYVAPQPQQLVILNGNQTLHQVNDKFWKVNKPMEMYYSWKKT

- fold reduction of coimmunoprecipitation without RYBP against extract with RYBP: > 6 fold
Substance: Twin-Strep-tagged and Myc-tagged Siesta protein (natural protein)
